Assay results published in the supplement of paper PMC10567573.

B1: KLHDC10 (parent)
chain: PSLLELAWEKLLAAFPNLANLSRT

Variants of: B1
Assay: protein stability index of a GFP-peptide fusion (GPS, HEK-293T) (PSI 1-6); higher = more stable
Details: c terminus: a fixed tail appended
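Further: lentivirally expressed fusions sorted by FACS into six bins by GFP to DsRed ratio, PSI derived from sequencing read proportions per bin multiplied by bin number.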

Variant | protein stability index
PSLLELAWEKLLAAFPNLANLPRT | 2.21
PSLLELAWEKLLAAFPNLANLHRT | 2.11
PSLLELAWEKLLAAFPNLANLFRT | 2.46
PSLLELAWEKLLAAFPNLANLKRT | 2.57
PSLLELAWEKLLAAFPNLANLYRT | 1.81
PSLLELAWEKLLAAFPNLANLART | 2.81
PSLLELAWEKLLAAFPNLANLRRT | 2.71
PSLLELAWEKLLAAFPNLANLTRT | 2.3
PSLLELAWEKLLAAFPNLANLIRT | 2.28
PSLLELAWEKLLAAFPNLANLMRT | 2.02
PSLLELAWEKLLAAFPNLANLLRT | 2.4
PSLLELAWEKLLAAFPNLANLERT | 2.59
PSLLELAWEKLLAAFPNLANLWRT | 2.21
PSLLELAWEKLLAAFPNLANLGRT | 1.9
PSLLELAWEKLLAAFPNLANLVRT | 1.78
PSLLELAWEKLLAAFPNLANLNRT | 2.23
PSLLELAWEKLLAAFPNLANLQRT | 2.38
PSLLELAWEKLLAAFPNLANLCRT | 2.34
PSLLELAWEKLLAAFPNLANLDRT | 1.95
PSLLELAWEKLLAAFPNLAVLSRT | 2.47
PSLLELAWEKLLAAFPNLAFLSRT | 2.17
PSLLELAWEKLLAAFPNLAALSRT | 2.08
PSLLELAWEKLLAAFPNLAGLSRT | 2.12
PSLLELAWEKLLAAFPNLARLSRT | 1.89

Variant | protein stability index
PSLLELAWEKLLAAFPNLAELSRT | 2.25
PSLLELAWEKLLAAFPNLADLSRT | 1.51
PSLLELAWEKLLAAFPNLAKLSRT | 1.49
PSLLELAWEKLLAAFPNLATLSRT | 1.62
PSLLELAWEKLLAAFPNLALLSRT | 1.77
PSLLELAWEKLLAAFPNLAYLSRT | 2.22
PSLLELAWEKLLAAFPNLAILSRT | 2.24
PSLLELAWEKLLAAFPNLAQLSRT | 2.09
PSLLELAWEKLLAAFPNLAHLSRT | 2.46
PSLLELAWEKLLAAFPNLACLSRT | 2.68
PSLLELAWEKLLAAFPNLAPLSRT | 1.89
PSLLELAWEKLLAAFPNLAMLSRT | 3.12
PSLLELAWEKLLAAFPNLAWLSRT | 2.04
PSLLELAWEKLLAAFPNLASLSRT | 2.59
PSLLELAWEKLLAAFPNLANSSRT | 2.17
PSLLELAWEKLLAAFPNLANASRT | 2.14
PSLLELAWEKLLAAFPNLANPSRT | 2.07
PSLLELAWEKLLAAFPNLANDSRT | 2.33
PSLLELAWEKLLAAFPNLANMSRT | 2.25
PSLLELAWEKLLAAFPNLANGSRT | 2.22
PSLLELAWEKLLAAFPNLANVSRT | 2.35
PSLLELAWEKLLAAFPNLANRSRT | 2.38
PSLLELAWEKLLAAFPNLANFSRT | 2.54
PSLLELAWEKLLAAFPNLANWSRT | 2.6

Variant | protein stability index
PSLLELAWEKLLAAFPNLANQSRT | 2.05
PSLLELAWEKLLAAFPNLANTSRT | 2.6
PSLLELAWEKLLAAFPNLANHSRT | 2.72
PSLLELAWEKLLAAFPNLANISRT | 1.76
PSLLELAWEKLLAAFPNLANCSRT | 2.16
PSLLELAWEKLLAAFPNLANKSRT | 2.38
PSLLELAWEKLLAAFPNLANNSRT | 2.52
PSLLELAWEKLLAAFPNLANYSRT | 2.4
PSLLELAWEKLLAAFPNLANESRT | 1.82
PSLLELAWEKLLAAFPNLANLSET | 1.87
PSLLELAWEKLLAAFPNLANLSPT | 1.99
PSLLELAWEKLLAAFPNLANLSGT | 2.76
PSLLELAWEKLLAAFPNLANLSDT | 1.28
PSLLELAWEKLLAAFPNLANLSMT | 1.87
PSLLELAWEKLLAAFPNLANLSWT | 2.34
PSLLELAWEKLLAAFPNLANLSLT | 2.42
PSLLELAWEKLLAAFPNLANLSTT | 2.22
PSLLELAWEKLLAAFPNLANLSKT | 2.16
PSLLELAWEKLLAAFPNLANLSCT | 1.98
PSLLELAWEKLLAAFPNLANLSQT | 2.1
PSLLELAWEKLLAAFPNLANLSYT | 1.67
PSLLELAWEKLLAAFPNLANLSFT | 1.96
PSLLELAWEKLLAAFPNLANLSST | 1.55
PSLLELAWEKLLAAFPNLANLSNT | 2.17

Variant | protein stability index
PSLLELAWEKLLAAFPNLANLSAT | 1.55
PSLLELAWEKLLAAFPNLANLSVT | 2.33
PSLLELAWEKLLAAFPNLANLSIT | 1.78
PSLLELAWEKLLAAFPNLANLSHT | 2.02
PSLLELAWEKLLAAFPNLANLSRW | 2.28
PSLLELAWEKLLAAFPNLANLSRA | 2.34
PSLLELAWEKLLAAFPNLANLSRR | 2.6
PSLLELAWEKLLAAFPNLANLSRG | 2.17
PSLLELAWEKLLAAFPNLANLSRN | 2.23
PSLLELAWEKLLAAFPNLANLSRP | 2.44
PSLLELAWEKLLAAFPNLANLSRY | 2.32
PSLLELAWEKLLAAFPNLANLSRF | 2.06
PSLLELAWEKLLAAFPNLANLSRK | 2.25
PSLLELAWEKLLAAFPNLANLSRM | 2.17
PSLLELAWEKLLAAFPNLANLSRQ | 1.56
PSLLELAWEKLLAAFPNLANLSRC | 1.6
PSLLELAWEKLLAAFPNLANLSRL | 1.85
PSLLELAWEKLLAAFPNLANLSRH | 2.56
PSLLELAWEKLLAAFPNLANLSRS | 2.14
PSLLELAWEKLLAAFPNLANLSRV | 2.29
PSLLELAWEKLLAAFPNLANLSRI | 2.03
PSLLELAWEKLLAAFPNLANLSRE | 2.22
